Data set [1] concerns the target T1, human galectin-1 (hGal1), native (Homo sapiens, UniProt P09382 SEQ:1-134). Nature of the data set: thermal shift assay; results stated similar to SEQ ID NO 4 and 9. To be noted: tags: expressed in E. coli M-15, lactosyl-Sepharose purified; chain copies: 2. The procedure:
(§1) Thermofluor experiments were performed on an Mx3005 RT-PCR (Agilent Technologies) using the SYPRO® Orange dye (492/610 nm) (Invitrogen) as fluorescent probe. The purified (native and alkylated) protein samples were incubated for 30 min with increasing concentration of the molecules of interest, centrifuged, and submitted to the thermal denaturation assay, totalizing four distinct experiments. In a 96-well plate (Agilent Technologies) 20 μl of the reaction containing 5 μM of each protein in buffer PBS 1× and 5× SYPRO® Orange were heated from 25° C. to 95° C. at a rate of 1° C./min. The experimental result was processed as in the protocol previously described and the melting temperature was obtained using GraphPad Prism software (www.graphpad.com).

The target in data set [2] is T1, human galectin-1 (hGal1), native. Kind of data set: thermal shift assay; among the four with greatest Tm variation. To be noted: tags: expressed in E. coli M-15, lactosyl-Sepharose purified; chain copies: 2. The procedure: as §1

The text below walks through data of patent US20210301293, “DNA APTAMERS, METHOD FOR INHIBITING HUMAN GALECTIN-1 AND METHOD OF TREATING A MAMMAL IN NEED THEREOF” (published 2021).

T1 sequence (P09382 2-135): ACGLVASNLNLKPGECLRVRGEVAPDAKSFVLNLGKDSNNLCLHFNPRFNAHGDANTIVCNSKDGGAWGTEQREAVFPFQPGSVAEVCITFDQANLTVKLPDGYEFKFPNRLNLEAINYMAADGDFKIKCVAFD

B1: SEQ ID NO. 12 (ssDNA)
DNA: AGCTGACACAGCAGGTTGGTGCGCCCAATACAGGCGCAGTATCTGTCCGTGGGCCGGGTAAAAGTTACGGACCGAGTCGAGCAATCTCGAAAT
Regarding B1, the binding result in data set [1] was “binds”.

B2: SEQ ID NO. 9 (ssDNA)
DNA: AGCTGACACAGCAGGTTGGTGCCCAAAAGAGCCAATCCACGACGACACCCCAAAAACCATATCACGAATACCCGAGTCGAGCAATCTCGAAAT
On to B2, for which the binding result in data set [2] is given as “binds”.

B3: SEQ ID NO. 10 (ssDNA)
DNA: AGCTGACACAGCAGGTTGGTGCCAACAAGAAAAGAAACCGTTACAGAAGACACTACAGAATAAGTGAAAAGCCGAGTCGAGCAATCTCGAAAT
Take B3: the binding result in data set [1] is recorded as “binds”.
